Results published in patent publication US8853165B2, “Peptide having the ability to regenerate bone tissue and for binding to apatite” (Nano Intelligent Biomedical Engineering Corporation Co., …, priority 2010, dated 2014).
Several values for one entry are separate records, joined by “and”; a condition that tells them apart may be missing. Equal values may be shown once. Residues, ends and D or L forms follow the SMILES beside them. *: point of attachment. FITC = O=C1OC2(c3ccc(O)cc3Oc3cc(O)ccc32)c2ccc(NC(=S)*)cc21

Legend:
[1] = tested on: rabbit calvarial defect; test: In vivo stability of FITC-labeled peptide on bone mineral grafted into calvarial defect (confocal microscope, blood fluorometer); settings: 10 mg and 20 mg bone mineral grafted, blood before and 1, 3, 7, 14, 21, 28 days after graft
Experimental: In order to test in vivo stability, 10 equivalents of fluorescein isothiocyanate (FITC) was allowed to bind to the N-terminus by using triethylamine (1 ml per 1 g of resin) at the time of preparing the peptide of SEQ ID NO: 40. The peptide synthesis was confirmed by measuring the molecular weight thereof through MALDI-TOF.
The peptide of SEQ ID NO: 40, labeled with FITC, was precipitated in the bovine bone mineral (OCS-B, NIBEC). The resultant bone mineral was grafted into the rabbit calvarial defect, and then scarified after 4 weeks. After that, the bone mineral grafted into the calvarial defect was observed by using a confocal microscope (Olympus, Japan). The bone mineral with a binding peptide of SEQ ID NO: 40, labeled with FITC, in 10 mg and 20 mg was grafted into the rabbit calvarial defect. The blood was taken before the graft and 1 day, 3 days, 7 days, 14 days, 21 days, and 28 days after the graft, and then it was determined by using the Fluorometer whether or not the peptide was freed into the systemic blood.

[2] = tested on: rabbit calvarial defect; test: In vivo bone regeneration capacity of peptide-bound bone graft material in calvarial defect; set-up: species or system rabbit (NewZealand white rabbit); settings: peptide bound to bone graft material, 50 mg per 8 mm defect, 2 weeks after graft, histology
From the text: Each of the peptides of SEQ ID NO: 35, SEQ ID NO: 36, and SEQ ID NO: 40, prepared in Example 1, was allowed to bind to a bone graft material by the same method as Example 2, which was then grafted into the rabbit calvarial defect. The bone regeneration capacity thereof was confirmed. An 8 mm-diameter circular bone defect was formed in the calvarial region of the anesthetized rabbit (NewZealand white rabbit, specific name: cuniculus). The bone graft material and the peptide-containing bone graft material were grafted into the bone defect with 50 mg for each defect, and the periosteum and skin were doubly sutured. The animal was sacrificed 2 weeks after the graft, and the taken sample was fixed in the formaline solution. The tissue was subjected to embedding to prepare a 20 μm-thick specimen. The prepared specimen was stained with basic fuchsin and toluidine blue to produce a nondemineralized sample. The thus produced sample was observed by an optical microscope, and photographed.

[3] = Peptide release (elution) test from bone graft material in PBS at 37° C., HPLC; format: physicochemical, bovine; settings: for Release of Peptide from Bone Mineral: PBS, 37° C., Lot Nos. 1-3
Experimental: 1200 mg of the peptide prepared in Example 1 was dissolved in 1 mL of tertiary distilled water, and then 4 g of bovine bone mineral (OCS-B, NIBEC) was added thereto, followed by deposition for 24 hours and then freeze-drying.
4 g of a bone graft material with a binding peptide was input to 20 mL of PBS, and then the peptide release test was conducted at 37° C. After 7 days, 20 Ml of elution solvent that was initially introduced was completely removed, and then 20 Ml of new elution solvent was again added to proceed elution at 37° C. In the above manner, the peptide elution test was conducted for 14 days, 28 days, 56 days, 84 days, and 100 days. After completion of elution, the bone graft material was collected and the peptide content was measured.
3 g of the bone graft material with a binding peptide was precisely weighed, and then made into powder. About 2 g of the powder corresponding to 160 mg of peptide was precisely weighed, which was then input to 40 mL of Solution A as mobile phase, followed by sonication for 1 hour. After that, extraction was conducted while stirring at 37±2° C. for 24 hours, and then the upper layer of the extracted solvent was separated by centrifuging at 3000 rpm for 10 minutes and then filtration with a 0.22 μm millipore filter. 1 mL thereof was taken therefrom, and mixed with 3 mL of Solution A, which was then filtered through a 0.22 μm millipore filter, then the filtrate was used as the test liquid.
The peptide standard product was dried in the desiccator (silica gel) for 5 hours, and then 10 mg thereof was precisely weighed, which was then dissolved by the addition of Solution A as a mobile phase, and then exactly 10 mL thereof was used as a standard liquid.
The test liquid and the standard liquid each 10 μl were tested under the following operating conditions for liquid chromatography, to obtain test liquid and standard liquid peak areas, AT and AS. Amount of peptide (mg)=amount of peptide standard product (mg)×
Meter: Analytical HPLC (Shimadzu, Japan)
Column: Filled with C18-bonded silica gel with 5 μm size (length: […], inner diameter: 4.6 mm)
Mobile phase: 0.1% trifluoroacetic acid/DDW (Solution A) 0.098% trifluoroacetic acid/acetonitrile (Solution B)
Detector: UV absorption spectrometer (measurement wavelength: 230 nm)
Column temperature: Constant at approximately 40° C.

## CC[C@H](C)[C@H](NC(=O)[C@H](CC(=O)O)NC(=O)[C@@H]1CCCN1C(=O)[C@H](CCCNC(=N)N)NC(=O)[C@H](CCCNC(=N)N)NC(=O)[C@H](Cc1ccccc1)NC(=O)[C@H](CCCCN)NC(=O)[C@H](CCCCN)NC(=O)[C@H](CO)NC(=O)[C@H](CCCCN)NC(=O)[C@H](CO)NC(=O)[C@H](CCCNC(=N)N)NC(=O)[C@H](CC(C)C)NC(=O)CNC(=O)[C@H](Cc1ccc(O)cc1)NC(=O)[C@H](CCC(=O)O)NC(=O)[C@H](CCCNC(=N)N)NC(=O)[C@H](CO)NC(=O)[C@H](Cc1ccccc1)NC(=O)[C@H](CCC(=O)O)NC(=O)[C@H](Cc1c[nH]cn1)NC(=O)[C@@H]1CCCN1C(=O)[C@@H](NC(=O)[C@@H]1CCCN1C(=O)[C@H](CC(C)C)NC(=O)[C@@H](NC(=O)[C@H](CO)NC(=S)Nc1ccc2c(c1)C(=O)OC21c2ccc(O)cc2Oc2cc(O)ccc21)[C@@H](C)O)[C@@H](C)CC)C(=O)N[C@@H](CCC(N)=O)C(=O)N[C@@H](Cc1ccc(O)cc1)C(=O)N1CCC[C@H]1C(=O)N[C@@H](CC(=O)O)C(=O)N[C@@H](C)C(=O)N[C@H](C(N)=O)[C@@H](C)O [SEQ ID NO: 40, labeled with FITC] ({FITC}-STLPIPHEFSREYGLRSKSKKFRRPDIQYPDAT-NH2)
[1]
  RFI values of blood (peptide freed into systemic blood): no differences as compared with the values before the graft

## NH2-STLPIPHEFSRE-YGLRSKSKKFRRPDIQYPDAT-COONH2 (H-STLPIPHEFSREYGLRSKSKKFRRPDIQYPDAT-NH2) [SEQ ID NO: 40]
[2]
  bone regeneration effect: remarkably increased bone regeneration capacity as compared with A and B
[3]; after ending the 100 day elution, Lot Nos. 1, 2, 3
  Content of Peptide Remaining in Bone Mineral: 9.2 mg and 9.18 mg and 9.78 mg and 9.19 mg
[3]; day 7
  Release of Peptide from Bone Mineral: 0 mg
[3]; day 14
  Release of Peptide from Bone Mineral: 0 mg
[3]; day 28
  Release of Peptide from Bone Mineral: 0 mg
[3]; day 56
  Release of Peptide from Bone Mineral: 0 mg
[3]; day 84
  Release of Peptide from Bone Mineral: 0 mg
[3]; day 100
  Release of Peptide from Bone Mineral: 0 mg
[3]; elution test for 100 days, Lot No. 1, 2 and 3, retention time 14.196 min
  peak of the peptide in the elution liquid: not observed

## STLPIPHEFSRE (apatite binding peptide) [SEQ ID NO: 36]
[2]
  bone regeneration effect: smallest

## YGLRSKSKKFRRPDIQYPDAT (partial peptide of bone sialoprotein) [SEQ ID NO: 35]
[2]
  bone regeneration effect: increased bone regeneration effect as compared with A
